For one data set, the system named is renal cortex. In words: T1 weighted MRI of rat kidneys after i.v. contrast agent (contrast enhancement in renal cortex). Conditions: 20 minutes after 30 seconds in vivo i.v. infusion of 800 μl Ringer solution containing ~1 mg complex. Here is the method:
The MRI hardware used to obtain the date in the figures described below is a Pharmascan 7T small animal MR scanner (from Bruker Biospin MRI GmbH, Ettlingen, Germany). The software is Paravision version 4 (from Bruker Biospin MR GmbH). Dynamic imaging was performed using a Flash sequence, with 2 mm slice thickness, 256×256 matrix, field of view (FOV) 6 cm, TR15.576 ms, TE3.7 ms, 250 evolution cycles, scan time 12 mins 27 sec. T1 weighted imaging was performed using a Flash T1 sequence, with 2 mm slice thickness, 256×256 matrix, FOV 6 cm, TR15.57 ms, TE3.7 ms, 10 averages, scan time 30 secs. T2 weighted imaging was performed using a Turbo RARE T2 sequence, with 2 mm slice thickness, 256×256 matrix, FOV 6 cm, TR4200 ms, TE36 ms, 3 averages, scan time 6 mins 47 secs.

In data set [1] the test system is kidney (glomeruli, proximal tubular cells). Conditions: cited from earlier work.

Turning to “Gd-DTPA-Lysozyme: Complex of chicken egg white lysozyme linked via DTPA chelator to Gadolinium, Example 2 standard protocol”, the “contrast enhancement, T1 weighted MRI of coronal sections of rat kidneys (ex vivo)” value with renal cortex was “selectively enhanced the contrast in the renal cortex”.
For aprotinin, the “time at which breakdown products can be detected in plasma after i.v. injection” value in data set [1] (labelled aprotinin, i.v. injection) was 20 min. In data set [1] (rat, in vivo), the “renal handling of native aprotinin (filtration, tubular uptake)” value is “freely filtered in the glomeruli and quantitatively taken up into proximal tubular cells”.

These data come from patent US20100191096A1, “PARAMAGNETIC BIOMOLECULE COMPLEXES AND USES THEREOF IN THE ASSESSMENT OF ORGAN FUNCTION” (priority 2007, published 2010).
